Test results from US12018068B2, “Anti-O1 antibodies and uses thereof” (priority 2016, dated 2024).

B1: 54H7: mouse hybridoma anti-O1 antigen antibody (Ms IgG3), VH SEQ ID NO:47, VL SEQ ID NO:48 (antibody, V domains shown)
VH: QVHLQQPGSELVRPGASVTLSCKASGYTFTNYWMQWVKQRPGQGLEWIGNIYPGSGNTNYDEKFRSKATLTVDTSSSTAYMHLTSLTSEDSAVYYCTRNWNFDYWGQGTTLTVSS
VL: DIQMTQSPSSLSASLGERVSLTCRASQDIGSSLNWLQQEPDGTIKRLIYATSSLDSGVPKRFSGSRSGSEYSLTISSLEAEDFVDYYCLQHTDSPYTFGGGTKLELK
modifications: 54H7 VH; 54H7 VL Amino Acid Sequence
B2: KPE33: human anti-K. pneumoniae O1 antigen antibody, VH SEQ ID NO:8, VL SEQ ID NO:9, isolated as IgG2 from donor #262 (antibody, V domains shown)
VH: EVQLVESGGALVQPGGSLRLSCAVSGFIFDDYAIHWVRRAPGKGLEWVSGIAWKSGATNYADSVKGRFAISRDNSKKSMYLQMNSLGTEDTALYYCTRRRASGDDTFYYFDYWGQGTLVTVSS
VL: EIVLTQSPATLSLSPGERATLSCRASQNVNTNLAWYQQRPGQSPRLLIYDASTRAAGLPARFSGSGSGTDFTLTISSLEPEDFAVYYCQQCTNWRYTFGQGTKLEIK
modifications: KPE33 VH Amino Acid Sequence; KPE33 VL Amino Acid Sequence

Assays:
purified O1 LPS = test: Fortebio Octet competitive binding on O1 LPS; set-up: species or system Klebsiella pneumoniae; settings: 10 μg/mL, probe pre-bound with KPE33
Description: Briefly, after initial binding with 10 μg/mL KPE33, the probe was incubated with antibody mixtures containing 10 μg/mL KPE33 with equal concentrations of 54H7, KPE33, or the control antibody R347.

LPS = test: endotoxemia LPS-induced sepsis model, survival; format: in vivo, Balb/c mice; settings: 1 mg/kg or 5 mg/kg, 24 hours prior to LPS, vs control IgG (R347)
Description: In order to determine the protective effect of anti-O1 antigen antibodies, female mice (Balb/c), aged 6-8 weeks, were sensitized with D-galactose (D-Gal, 12 mg/kg), and subsequently challenged intraperitoneally (ip) with 10-50 ng of LPS 24 hours after anti-O1 antigen antibody administration. Antibody was administered at doses of 0.2 mg/kg, 1 mg/kg, or 5 mg/kg. Mouse survival was monitored up to 6 days post LPS challenge.

[1] = system: K. pneumoniae strain Kp8045 (O1:K1); test: intranasal lung infection model, lung bacterial burden; format: in vivo, Klebsiella pneumoniae; settings: C57BL/6 mice, 15 mg/kg, CFU 48 hours post infection
Description: The ability of anti-O1 antigen antibodies to reduce organ burden was tested in bacterial infection models. In these experiments, C57BL/6 mice were received from Jackson laboratories and maintained in a special pathogen free facility. All animal experiments were conducted in accordance with IACUC protocol and guidance. K. pneumoniae strains were grown on agar plates overnight and diluted in saline at proper concentration. The inoculum titer was determined by plating a serial dilution of bacteria onto agar plates prior to and post challenge.
Antibodies and controls at 15 mg/kg were administered 24 hours prior to bacterial infection. C57BL/6 mice were inoculated with 1e4 CFU Kp8045 (O1:K1) bacteria in 40 μl saline intranasally to induce pneumonia. The lung bacterial burden was measured by plating lung homogenates onto agar plates to determine CFU 48 hours post infection.

O1 LPS = test: Octet binding affinity to O1 LPS; set-up: species or system Klebsiella pneumoniae; settings: average, from on-rate and off-rate, read-out: affinity constant (KD) to O1 LPS
Excerpt: In order to reduce potential sequence liabilities for antibody development including potential immunogenicity due to anti-drug antibodies, an unpaired Cysteine in the light chain CDR3 of KPE33 was exchanged with Threonine (T), and somatic mutations in the frameworks 1, 2, and 4 of KPE33 were replaced with germ line residues (as summarized in FIG. 5). CDRs were maintained as wildtype, except for the C107T substitution described above. The optimized KPE33 was named KPE33v2016. […] This platform provides a powerful tool to measure the rate of biomolecular complex formation and complex stability in a more biologically meaningful setting. Briefly, Protein A coated sensors were coated with 2 μg/mL O1 LPS for 10 minutes before being dipped into solution containing 0.2 μg/mL anti-O1 LPS mAbs in Kinetics buffer (ForteBio, dilute 10× to 1× with PBS). Changes in the number of molecules bound to the biosensor caused a shift in the interference pattern that was recorded in real time. […] The affinity constant (KD) of KPE33 and KPE33v2016 to O1 LPS was calculated based on the on-rate and off-rate from Octet sensorgram.
KPE33v2016 was further optimized, thereby creating two new variants—KPE33 H32+L2016(1EQ) and KPE33 H33+L2016(1EQ). Both of these variants contain a Methionine to Isoleucine mutation adjacent to CDRH1, a Tryptophan to Tyrosine mutation in CDRH2, an Aspartate to Glutamate mutation adjacent to CDRH2, Asparagine to Glutamine and Methionine to Leucine mutations in FRH3 and an Aspartate to Asparagine mutation in CDRH3. In addition, KPE33 H32+L2016(1EQ) had four FRH3 residues changed to the germ-line residues, whereas KPE33 H33+L2016(1EQ) only has three of the same FRH3 residues changed to the germ-line. Both of these variants contain the same light chain as KPE33v2016, but with a single Glutamate to Glutamine mutation in residue 1.

Kp8561 Klebsiella = test: bacteremia model, KPE33 synergy with meropenem; format: in vivo, Klebsiella pneumoniae; settings: antibody 2.5 mpk, meropenem 5 mpk, post challenge
Description: (§1) The synergy of anti-O1 antigen antibodies and antibiotic was also assessed in the pneumonia and bacteremia mouse models.
(§2) In the pneumonia experiments, C57BL/6 mice were inoculated intranasally with 1e4 to 1e8 CFU of the Kp8045 Klebsiella. (See FIG. 4A.) In the bacteremia experiments, mice were inoculated with Kp8561 Klebsiella. (See FIG. 4B.) Both sub-therapeutic dosage of antibodies (1 mpk for Kp8045 and 2.5 mpk for Kp8561) and meropenem antibiotic (2.5 mpk for Kp8045 and 5 mpk for Kp8561) were administered post bacterial challenge. Mouse survival was monitored daily until up to day 8.

[2] = system: Klebsiella pneumoniae of the LPS-O1 serotype; test: primary screening, binding to whole bacteria
Excerpt: KPA27 and KPE33 were isolated from the peripheral blood of two different immune donors: #487 and #262, respectively. […] KPA27 and KPE33 were isolated from immune donors as IgG2 antibodies.
KPB202 and KPJ4 were isolated from tonsillar B cells of two different donors: T6 (KPB202) and T8 (KPJ4). […] KPB202 and KPJ4 were isolated from donors as IgG1 and IgG2 antibodies, respectively.

[3] = system: K. pneumoniae and S. aureus SF8300 (USA300); test: K. pneumoniae and S. aureus co-infection pneumonia model; format: in vivo, Klebsiella pneumoniae and Staphylococcus aureus; settings: C57BL/6 mice, 0.5 mL ip, 24 hours prior to co-infection
Description: In order to evaluate the efficacy of anti-O1 antigen antibodies in co-infection, female 7-8 week old C57BL/6 mice were briefly anesthetized in 3% Isoflurane and 50 μl of bacterial suspension was placed on the nares. Animals were inoculated with 5e7 CFU S. aureus SF8300 (USA300) alone or in combination with 1.5e2 CFU of K. pneumoniae and monitored up to 7 days for survival studies. For organ burden studies, lungs and spleens were harvested at 24 or 48 hours post challenge as described in Example 5 above. For protection studies, mice were passively immunized (0.5 mL, ip) with KPE33 or control mAb before lethal bacterial challenge. All data were plotted in Prism.

ESBL strain Kp8561 (O1) = test: lethal bacteremia model, survival; format: in vivo, Klebsiella pneumoniae; settings: C57BL/6 mice, 1.5, 5, 15 mg/kg one hour post challenge
Description: In a bacteremia model, C57BL/6 mice were inoculated intraperitoneally with 1e8 CFU extended spectrum beta lactamase (ESBL) clinical isolate strain Kp8561 (O1). Anti-K. pneumoniae monoclonal antibody KPE33 at 1.5, 5, and 15 mg/kg and human IgG1 control antibody at 45 mg/kg were given one hour post bacterial challenge (therapeutic dosing). Mouse survival was monitored daily until up to day 8.

Kp8045 Klebsiella = test: pneumonia model, KPE33 synergy with meropenem; format: in vivo, Klebsiella pneumoniae; settings: antibody 1 mpk, meropenem 2.5 mpk, post challenge
Description: as §1, §2

Row | Molecule | additional binding after initial binding of KPE33 (purified O1 LPS) | survival, endotoxemia model (LPS) | lung bacterial burden [1] | Kd (O1 LPS) [nM] | survival, combination with meropenem, bacteremia Kp8561 (Kp8561 Klebsiella) | binding to bacteria in primary screening [2] | survival in lethal co-infection [3] | survival, lethal bacteremia Kp8561 (ESBL strain Kp8561 (O1)) | survival, combination with meropenem, pneumonia Kp8045 (Kp8045 Klebsiella)
1 | B1 | able to show additional binding | protects mice | – | – | – | – | – | – | –
2 | B2 | – | – | significantly reduced organ burden | 5.83 | significant synergy and better protection than monotherapy | bind to Klebsiella pneumoniae of the LPS-O1 serotype | rescued the mice | protect mice from extended spectrum beta-lactamase (ESBL) strain Kp8561 | significant synergy and better protection than monotherapy
